Measured values from patent US6869925 (Amgen, dated 2005).

Tests used:
[1] = molecular target: SLPI binding sites on U937 cells (human monocyte cell line; intact cells, PMA-induced cells or plasma membranes) (human); test: competition with 125I-SLPI, intact U937 cells, cold SLPI at 860 nM
[2] = molecular target: SLPI binding sites on HuT78 cells (human T cell line) (human); test: competition with 125I-SLPI, intact HuT78 cells, competitor at 8.2 nM
[3] = molecular target: SLPI binding sites on U937 cells (human monocyte cell line; intact cells, PMA-induced cells or plasma membranes) (human); test: competition with 125I-SLPI, intact U937 cells, cold SLPI at 0.25 nM
[4] = molecular target: SLPI binding sites on U937 cells (human monocyte cell line; intact cells, PMA-induced cells or plasma membranes) (human); test: competition with 125I-SLPI, intact U937 cells, Kd by Cheng-Prusoff
[5] = molecular target: SLPI binding sites on U937 cells (human monocyte cell line; intact cells, PMA-induced cells or plasma membranes) (human); test: 125I-SLPI saturation binding, intact U937 cells, *SLPI at 1280 pM
[6] = molecular target: SLPI binding sites on U937 cells (human monocyte cell line; intact cells, PMA-induced cells or plasma membranes) (human); test: 125I-SLPI saturation binding, U937 cells minus PMA, *SLPI at 20,480 pM
[7] = molecular target: SLPI binding sites on U937 cells (human monocyte cell line; intact cells, PMA-induced cells or plasma membranes) (human); test: 125I-SLPI saturation binding, U937 cells plus PMA, *SLPI at 80 pM
[8] = molecular target: SLPI binding sites on HuT78 cells (human T cell line) (human); test: competition with 125I-SLPI, intact HuT78 cells, competitor at 2.6 nM
[9] = molecular target: SLPI binding sites on U937 cells (human monocyte cell line; intact cells, PMA-induced cells or plasma membranes) (human); test: 125I-SLPI saturation binding, U937 cells plus PMA, *SLPI at 640 pM
[10] = molecular target: SLPI binding sites on HuT78 cells (human T cell line) (human); test: 125I-SLPI saturation binding, intact HuT78 cells, *SLPI at 20,480 pM
[11] = molecular target: SLPI binding sites on U937 cells (human monocyte cell line; intact cells, PMA-induced cells or plasma membranes) (human); test: competition with 125I-SLPI, intact U937 cells, cold SLPI at 0.078 nM
[12] = molecular target: SLPI binding sites on HuT78 cells (human T cell line) (human); test: competition with 125I-SLPI, intact HuT78 cells, cold SLPI at 0.80 nM
[13] = molecular target: SLPI binding sites on U937 cells (human monocyte cell line; intact cells, PMA-induced cells or plasma membranes) (human); test: 125I-SLPI saturation binding, intact U937 cells, *SLPI at 20,480 pM

Chain of serine leukocyte protease inhibitor (SLPI) (P03973 26-132): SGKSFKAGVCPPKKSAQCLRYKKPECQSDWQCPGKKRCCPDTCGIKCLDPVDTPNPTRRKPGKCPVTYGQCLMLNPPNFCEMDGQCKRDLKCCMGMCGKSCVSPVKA

- % *SLPI BOUND [1]: 0%
- % *SLPI BOUND [2]: 57%
- % *SLPI BOUND [3]: 92%
- Kd [4]: 2 nM
- bound *SLPI (pM) [5]: 217 pM
- bound per free [5]: 0.204
- sites bound per cell (sites per cell) [5]: 13100
- specific cpm [5]: 8650 cpm
- bound *SLPI (pM) [6]: 915 pM
- bound per free [6]: 0.047
- sites bound per cell (sites per cell) [6]: 55100
- specific cpm [6]: 9780 cpm
- bound pM [7]: 32 pM
- bound per free [7]: 0.67
- sites bound per cell (sites per cell) [7]: 1910
- specific cpm [7]: 339 cpm
- % *SLPI BOUND [8]: 76%
- bound pM [9]: 103 pM
- bound per free [9]: 0.192
- sites bound per cell (sites per cell) [9]: 6200
- specific cpm [9]: 1100 cpm
- bound pM [10]: 30.3 pM
- bound per free [10]: 0.0015
- sites bound per cell (sites per cell) [10]: 1820
- specific cpm [10]: 1210 cpm
- % *SLPI BOUND [11]: 101%
- % *SLPI BOUND [12]: 62%
- bound *SLPI (pM) [13]: 471 pM
- bound per free [13]: 0.024
- sites bound per cell (sites per cell) [13]: 28400
- specific cpm [13]: 18800 cpm
Substance: serine leukocyte protease inhibitor (SLPI) (from UniProt P03973 26-132)
